The series can be described thus: soluble on expression in E. coli; label from the status in PepcDB or PDB records.
Consider “MGSDKIHHHHHHMCMYVFVKERVESRSFIPEEKIFELLEKTKNPDPARVREIIQKSLDKNRLEPEETATLLNVEDPELLEEIFEAARTLKERIYGNRIVLFAPLYIGNDCINDCVYCGFRVSNKVVERRTLTEEQLKEEVKALVSQGHKRLIVVYGEHPNYSPEFIARTIDIVYNTKYGNGEIRRVNVNAAPQTIEGYKIIKSVGIGTFQIFQETYHRETYLKLHPRGPKSNYNWRLYGLDRAMMAGIDDVGIGALFGLYDWKFEVMGLLYHTIHLEERFGVGPHTISFPRIKPAINTPYSQKPEHVVSDEDFKKLVAIIRLSVPYTGMILTAREPAKLRDEVIKLGVSQIDAGSRIGIGAYSHKEDDEDRKRQFTLEDPRPLDQVMRSLLKEGFVPSFCTACYRAGRTGEHFMEFAIPGFVKNFCTPNALFTLQEYLCDYATEETRKVGEEVIERELQKMNPKIRERVREGLEKIKRGERDVRF”, for which the “soluble on expression in E. coli” value is reported as “not soluble”.
To “MSLADLLDTVKQRGALKIALEGTYPPFNFKDAKQQLTGFDVEIATEIARRMKVKPEFVTAEWSGLLAGLQSGKFDIVVNQVGVTAQRQAVFDFSQPYTYSSAQLIVRKNESRDFKNLADLKGKKLGVGQGSNYADMAKAAAGVQVKTYPGAPEYLQDLATGRLDAALNDSLLIPFAIKQAKLPLKAGAPVGEVAAMAIPFAKGNPQFKSEIDKALGGMKADGTFRKISVKWFGIDVSKAEGHHHHHH” belongs “soluble”; to “MSSKSIHEKRAIAKYAASLIEDGDCIFVDAGTTTYELIDYLEGKDILVVSNGLSHIDTLIQKNIKCYVIGGNIKISTKAITGCDALMCLSKFRFDKCFIGANGVHHTYGLTTPDTEEAILKECAINNSRKAYVLADDSKFGEISTIKFSDINKCVIITNEKPKDNTYDKKTDIKVVDILEHHHHHH”, “soluble”.
Turning to “MSLNYSHAFHAGNHADVLKHIVLLALLDGLVRKETPFFVLDSHAGRGRYLLSAGESRNTREAESGVMRLIARPQRLEVIKRYVDVVQADNVSQTRAASTPMHISRYPGSSLLAAQVCRAQDRMVFCELHPKEAAALNALFVHDPRVRVHAGDGYAAVRAFLPPKVGTQRIGRGLVFIDPPYEAQDAEYPLVLGALRETLTRWPQAICAVWYPIKQRRRLQPFFRKAVGLPVRSVLIAELLVRLDDSPLRLNGSGMLLLNVPWQFDQLLAPALPVLKTQLGESGARTRLEWLKVPQEGHHHHHH”, the “soluble on expression in E. coli” value is given as “not soluble”.
Regarding “MSLSETSRQLSGRFLHVTDFHLDTHYRKGTSEETLCHRDSGSAGRLGAEGSDCDSPQALIDETFRWIEKNLKGKIDFVLWTGDSARHDNDEKIPRTASEIIDLNKALAAKFIEVFEDSGAARGLSIPVIPTIGNNDIMPHNIFREAPNRWTRKFTEVWSEFIPEAQRHTFEEGGWFSAELIPNKLAALSLNTMYFYESNSAVDGCAMPSEPGFEHMEWLRVQLEILRQRGMKAILIGHVPPARSGSKRSWDESCWQKYTLFMNRFRDVVVGSVYGHMNVDHFMLQDSHDVDIVAASEDSSSDPGFSVQSRTDYLASLREEWDSMPSPPGGDSSDILLSDDWNLDALGKKEREGHHHHHH”, the “soluble on expression in E. coli” value is “soluble”.
With “MGSDKIHHHHHHMNKLRILHLNDLHSHLERFPVIERFFAEKSHEEVESLSFDLGDNVDRVHPLTEATEGQFNVELMNRLDLTAATIGNNEGLGLTHEMLSHLYDEANFPVLLSNLATNFAQSEPLIVTTSFGLRIGLIGLTAPYVLAYPQAGWELSDPFVVLDELLPKLDCDFTILLSHLGKNVDEQIAKDYDEIDLIIGAHTHHLFEHGAQVNQTLLAAAGRYGEYVGQIDLTFNENNQLVDAQIEAIATNTLPQRKSDLVETNGWELRGHKLLEGTVVADLPKALPNVLPDFKGSHYLAKIFADYGNTKLCLMNSGLLVTDELPNHLTLDDLHEFLPHSIRLVRFTFTGEELRQVLLEIMDVSDFLATQKIQGMGFRGKTFGSLIFHGIEPREGDFYIKNSENQSLEKISDEESYQIVLPDQYLFAWYFPLLKKLGKSEILFPYFLREIVAEHFKNK”, the “soluble on expression in E. coli” value is “not soluble”.
As to “MANTLIVGAGWLGTPLAQALLVEGHDVVITRRSQARLDERPSTIANAALLDLNDENAAQKLDEIIQSNHIERIVGAFPPGFRRGSGREYAQQWSTLVKAAKQHAIEKLVMISSTTVYPNLPTDMKEESASLALVQTHPHFSDNAKIMLEAEQSVIDSGINYAILRCSGLFGPDRHPARFAMRLKQVSRKAPANMLHQSDAVAVAQFALDHLSNQIINVTTPHTVSKAEFYQAAITKSGAEISLPPVTEDADKRILADKLVSLGYQFRFNSTLDAL”, the “soluble on expression in E. coli” value is “not soluble”.
On to “MKKIQRTQTRDHITQMLRYEILSGNIKAGEELAQESIAEQLGLSRMPVREALQSLEQEGFLIRLPNRHMQVAHLEADRVSHIFRVIAAMAAEMFSLIPSEVGDALLIRAQALAVAEDKSCELECHAMLISYVNNRYLEKVYQQFLDGYVSYVILHLKKDNQESAQLFAELADVIRQGRRDEIGQVMQRYFLSLAEIMRQHMKDWESAEA”, for which the “soluble on expression in E. coli” value is “not soluble”.
Turning to “MLSALACNMKYSSHPAAVAAGRGGNRRGGRMYAYERITDPAGFAAIEDEWRALAEACGGGGVFASHAFLLSWAETFGQGRRLAVSLLRHKGALVGALPMFHTGQARAVAAMGEGRAGMAQWLLHPDLPDADAALAALLRPDWLSFWRLEPLETPDAEALERAARRAGLAVRRKATMRACSVTTEGDFDSYLGGLKSKTRQVFRRSERKLAEMEVRDLRSDRDGRAALDAYLAASRASWKGLTGTGYGAAPEGVAFVEKLFERLGPEACYLAARQVGEVAISGRFVLVHDNMHYGMANDFNEEYADLAVGRNSIMQSVRDAFEGGAAGFDFTRCNGLVREVSTDERPLERVLIHRRGDPTLAAFFAARGLRRLRRKASGWQKGRRGVVS”, the “soluble on expression in E. coli” value is “not soluble”.
In the case of “MIITKNISLPELYQEWLDLKIMPSNRSDVTKKKYLSRKVTLEKLFGDKPISQIRPSEYQRIMNNYGQRVSRNFLGRLNTGVKQSLQMAIADKVMIEDFTQNVELFSTVKLEHHHHHH” it was “soluble”; in that of “MRTPLSSVSPQLVQRFHELGFTPSSIRNFLGRPGFAAISRGEPASVLYAMRENEDSDFYPLIATFILHRPVAAEALHRVLGGSLTDQLTETGVLEIVDASKAYLTAKIDIRWLELEDDLFWVFSDTDASMIADHVPGKDHVLGVGAASLSLLATTPRSPVNSVLDLGTGSGVQALGQLRHARSVTATDVHPRALDFAEATFAGAHFDVEILDGSWFEPIKNRKFDRIVANPPFVVGPPEIEHVYRDSGLDLDGATETVVRGAVDHLHSNGTAHLLGSWVHKNGESVASRVAEWIPSHGVIAWFLQRDTVDPIQYVNTWLRDESIDPRSEIGFKRTLSWLDHFSRAKVEAVGFGYVAIQRVDDSIPSEVYFEELTHQVDDYLGDEIEEFFVRVDWLREKNRDGIAQSQFYLRPGVAKESVSVTDIDSGMGFTHLKYRITRTEGPRWSHEVDEHIVSVIAGLHPEGLTLEDVATLYAVSNGLDDESFVDAIIDPVVALVRHGILLPAEITKGW”, “soluble”; in that of “MSLSRNSDLHMHSTASDGGYSPTELMEKCHQANLKFVALTDHDTVNGIEEAKQTAHRLGFILIPGIELSTKASGQSVHMLGYGIDWKNDTLKRRLDRQQDIRKQRLEQILLKLKAAGVPLEQDAVLRYADGGAIGRPHVAKALMDKGYVRSVQEAFEHYLAEGRPCYVKRQEYISVEQAIAWIHQAGGVAIVAHPGYYDLDDQLIGWVREYGLDGIEVYHRDHSREVVAHYEQLCKRMEAETGRRLLRTGGSDFHHESYGRTAAPLGTTRIPDQLTYELLHDLERKKTRAEGHHHHHH”, “soluble”.
In the case of “MSLKQLDMTPQPDLSQKTGTGPVLTRLPVWRPALPPCNHACPAGENIQAWLSLAEAGRFEAAWQTLIEENPLPAIHGRVCYHPCESACNRAQVDDAVSIHAIERFLGDEALARGWQPAPPAPASGKKVLVIGAGPSGLSCAWHLNRLGHQVEIREAGPLAGGMLRFGIPAYRLPRDVLDREVARIVAAGVTLTLNHKVEDVLRERDEGGFDAVFMAIGAHLAKRVDIPAREAGKILDAVSFLEQASLAEEQGLPPPKLGRRVAIYGGGNTAMDAARTARRLGVEEAMIIYRRDREHMPAHAFEADEAEEEGIKINWLRSIRQLDNTNIEVEVMALDAEGKPVPTGKFETLEADSLILALGQEVDLSVLESIPGVRVNKEGVVQVGENLMTDVPGLFAGGDMVPSERTVTIATGHGKKAARHMDAWLRGRHYQKMVSYPLVGPEQLQLWFQTHAPASSQPVKPAWARDDFGEIIGGLDETAARYEAARCYSCGNCFECDGCYGSCPEQAIEKLGPGKGYQVDATRCTGCGACHDQCPCHAIELRQPEESEGHHHHHH” it was “soluble”; in that of “MGSDKIHHHHHHMISDIPFLALLPLGAHEYHGDHLPFETDWIIAEAFAKALTVKTKKQFHIALLPVEKIGYSIEHMDVSGTQTLTFSEAIERWINIGEDCYRKGIKRFLLLNAHGGNSPLMSIVITELRKRFSMLAVATSWTRFGLPHGLMHPSQHHLDIHGGFIETSLMLYLAPEKVHMEKAKNFYNKQADMIANYQYLRAYGPHAFGWTMRDLNLQGAAGKAREATSQAGKAIFSHVLGGLRGLLDDINRFKIDAL”, “not soluble”; in that of “MSLAELAAVPAAPDDRLYSADNTQSSGETIRHLTWSGYEAANVQRPFEKKFDCQTGVDLFTSNLDAFNRLDDGAWREFDHATFDMAWLPDLAEAGLIRPLDYEAWKPYTFDKYTDLFQRENGYEFAFLDEDYNFDADGQLYGVPQRFGWASFALNTDVVSESDARSYDAAWADEYDVGVYDLPFWGVQIVMLREGIDPYATHTDAEVERIREATVALFENAAGVYADVGSLNTALAAGDIDIAFVSGNWINGSLRRGGRFEYEARVPDEGGVIWVETTTMLKGSHPSVSTNYLAYMQHGITAKNLMWPTVGGTNVVPHQSSIDRLNRRQRTVLRIDDLQDIIDKSRFYTGEGHHHHHH”, “soluble”.
For the sequence “SSTHGSRFPLCGGRRDHKGLTHIFNPPPKRFESILEGLFGPALLKDLSLFKDCEPESISDWTFDENCLFCCLRRDKVKGHLVGLDEPASGAGQEALLKQEQAKIIRFERQAEEFLNAVFYRKDSPWVSDPNIPLVAREIMQRMIQQFAAEYTSKNSSTQDPSQPNSTKNQSLPKASPVTTSPTAATTQNPVLSKLLMADQDSPLDLTVRKSQSEPSEQDGVLDLSTKKSPCAGSTSLSHSPGCSSTQGNGRPGRPSQYRPDGLRSGDGVPPRSLQDGTREGFGHSTSLKVPLARSLQISEELLSRNQLSTAASLGPSGLQNHGQHLILSREASWAKPHYEFNLSRMKFRGNGALSNISDLPFLAENSAFPKMALQAKQDGKKDVSHSSPVDLKIPQVRGMDLSWESRTGDQYSYSSLVMGSQTESALSKKLRAILPKQSRKSMLDAGPDSWGSDAEQSTSGQPYPTSDQEGDPGSKQPRKKRGRYRQYNSEILEEAISVVMSGKMSVSKAQSIYGIPHSTLEYKVKERLGTLKNPPKKKMKLMRSEGPDVSVKIELDPQGEAAQSANESKNE”, the “soluble on expression in E. coli” value is recorded as “soluble”.
In the case of “MGSDKIHHHHHHMVRMEEPAVKQGFLHLQQQQTFGKKWRRFAAVLYGESGCALARLELQDVPEKTRRGEATRKVVRLSDCLRVAEVGSEASSPRDTSAFILETKERLYLLAAPSAERSDWIQAICLLAFPGQRKGSPGLEEKSGSPCMEENELYSSSTTGLCKEYMVTIRPTEASERCRLRGSYTLRTGVSALELWGGPEPGTQLYDWPYRFLRRFGRDKATFSFEAGRRCLSGEGNFEFETRHGNEIFQALEKVITVQKNATPSGPPSLPATGPMMPTVLPRPESPYSRPHDSLPSPSPGTLVPGMRPGAPEGEYAVPFDTVAHSLRKSFRGLLTGPPPHLPDPLYDSIQEDPGAPLPDHIYDEPEGVAALSLYDRTQRPSGETWREQATADGGPSSLQQDSSVPDWPQATEYDNVILKKGP” it was “not soluble”.

Source of the values: the DeepSol protein solubility set.
